# Measured values taken from the supplement of paper PMC7125110.
# ± gives the standard error. This sample holds only a part of the variants without activity.
# B1: glmS ribozyme (parent)
# chain: AUAAAAGCGCCAGAACUACAGAAAUGUAGUUGACGAGGAGGAGGUUUAUCGAAUUUUCGGCGGAUGCCUCCAAA
# Variants of: B1
# Assay: self-cleavage kobs at 10000 uM GlcN6P; higher = faster cleavage; RNA array
# Conditions: with glucosamine-6-phosphate
# How it was run: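 kcat and KM were obtained from weighted Michaelis–Menten fits across concentrations of kobs values. Those came from one- or two-exponential decay fits to per-tile medians normalised to baseline and to non-cleaving reference variants. The variants were barcoded ribozymes transcribed in situ by E. coli RNA polymerase on sequenced MiSeq chips and tracked through a hybridised Cy3 probe at 37 °C, with 40 μM to 10 mM glucosamine-6-phosphate in HEPES/KCl/Mg(OAc)2 buffer flowed in.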
row,Variant,self-cleavage kobs at 10000 uM GlcN6P [s⁻¹]
1,A33U A39C A48C,< 1e-05
2,U31A C58U,4.45e-05 ± 6.1e-06
3,A64G G66C C67A,0.000252 ± 7.2e-05
4,A42G A48U U55G,0.000404 ± 8.1e-05
5,G38C C50A,< 1e-05
6,U47A C67U C71U,0.000453 ± 0.00017
7,U30G A39C U56A C70G,< 1e-05
8,C34A G41A C68G,< 1e-05
9,C34A G63U C70A,< 1e-05
10,U49A U65G C67G U69A,< 1e-05
11,A39C G40A C58G,< 1e-05
12,A33G A48C,< 1e-05
13,G40C G43U G51U,< 1e-05
14,C34A G51A C67G C70A,< 1e-05
15,G38C U49A G51U C71U,< 1e-05
16,G41A C61A C68G,< 1e-05
17,G43U C50U G63A,< 1e-05
18,U56G G60C,< 1e-05
19,G32C G35C U49C C68A,< 1e-05
20,U31A G43C C68U,0.000192 ± 5.2e-05
21,A36C A39U C67U,< 1e-05

row,Variant,self-cleavage kobs at 10000 uM GlcN6P [s⁻¹]
1,U47A A53U C58A,0.000151 ± 3e-05
2,G40A U45C U65G C67G,0.00034 ± 0.00012
3,G43A U57C G59U A64U,< 1e-05
4,U47A U65G G66U,0.00262 ± 0.00053
5,A39C G44C C50G U55G C67U,< 1e-05
6,U54A U57G,5.94e-05 ± 1.1e-05
7,A39C G44C C68A,< 1e-05
8,G32C G38U A42C G43C A52C,< 1e-05
9,U31C G38C U45A C50A C58U,< 1e-05
10,U31G U54C C70G,0.000117 ± 2.3e-05
11,U31A A39G U55C,0.0297 ± 0.011
12,G38A G43C U65G,< 1e-05
13,A33G A36G A39U A53G,< 1e-05
14,U31A U46G,0.00387 ± 0.0007
15,A53C U55G C67U,0.00164 ± 0.00038
16,G51C U54G C70A,< 1e-05
17,G59A C68G C70U,< 1e-05
18,U57C U65C C71A,< 1e-05
19,G38C A42G A64G,< 1e-05
20,U57G G62C,< 1e-05
21,C58A G60C,< 1e-05

row,Variant,self-cleavage kobs at 10000 uM GlcN6P [s⁻¹]
1,C50G A53C C71A,6.73e-05 ± 2.7e-05
2,G40A G51U C68U,< 1e-05
3,G43C U49C,< 1e-05
4,G38C U45C U49A A53U,< 1e-05
5,G35C G44A U46G,< 1e-05
6,G40C A53G G66C,0.000137 ± 2.8e-05
7,G32U G41A A53G,0.000262 ± 6.5e-05
8,A33G A42C U47C G60A,< 1e-05
9,A36U A42U C61U,< 1e-05
10,U45A U54A C70A,8.25e-05 ± 1.9e-05
11,U65G G66U C70A,6.2e-05 ± 1.7e-05
12,G32A U45G U47A,0.000614 ± 0.00014
13,U46G C68U C71U,8.22e-05 ± 1.3e-05
14,A42U G44C G62U C70G,< 1e-05
15,G44U G66C C71A,< 1e-05
16,A33U G35C C71G,< 1e-05
17,G40A C67A C70A,0.0001 ± 2.9e-05
18,U55C U57A,0.00024 ± 4.6e-05
19,A48U G59U A64G,< 1e-05
20,G44C U65G C67U,0.000247 ± 8.5e-05
